Among the data in US20040092720A1 (US Dept. of Health and Human Services, published 2004) are Counts/minute bound and Counts/minute bound (counts/minute) values, retold here.

B1: Peptide D44 (peptide)
peptide: GGSLAFGTLLCIAIVLRFKKA
notes: alanine-scan variant of the domain IV 21-mer
B2: Peptide D49 (peptide)
peptide: GGSLAFGTLLCIAIVARFKKT
notes: as for B1
B3: Peptide D53 (peptide)
peptide: GGSLAFGTLLAIAIVLRFKKT
notes: as for B1
B4: Peptide D47 (peptide)
peptide: GGSLAFGTLLCIAIVLRAKKT
notes: as for B1
B5: Peptide D45 (peptide)
peptide: GGSLAFGTLLCIAIVLRFKAT
notes: as for B1
B6: Peptide D56 (peptide)
peptide: GGSLAFGALLCIAIVLRFKKT
notes: as for B1
B7: Peptide D57 (peptide)
peptide: GGSLAFATLLCIAIVLRFKKT
notes: as for B1
B8: Peptide D52 (peptide)
peptide: GGSLAFGTLLCAAIVLRFKKT
notes: as for B1
B9: Peptide D55 (peptide)
peptide: GGSLAFGTALCIAIVLRFKKT
notes: as for B1
B10: Peptide D51 (peptide)
peptide: GGSLAFGTLLCIAAVLRFKKT
notes: as for B1
B11: Peptide D50 (peptide)
peptide: GGSLAFGTLLCIAIALRFKKT
notes: as for B1
B12: Peptide D54 (peptide)
peptide: GGSLAFGTLACIAIVLRFKKT
notes: as for B1
B13: Peptide D48 (peptide)
peptide: GGSLAFGTLLCIAIVLAFKKT
notes: as for B1
B14: Peptide D46 (peptide)
peptide: GGSLAFGTLLCIAIVLRFAKT
notes: as for B1

The target in one test is T1, recombinant human IL-6 (human, UniProt P05231 30-212, labeled with radioactive iodine).
T1 construct: Labeled probe in solution, added to wells that carry the synthetic peptides; also called IL-6 ligand; Interleukin-6
Briefly: radioiodinated IL-6 on peptide array.
As for ERPEDLQLVDHVDGGDGILPRQQY [Peptide E80], the Counts/minute bound came to 1210 counts/minute.
Same read-out and setting: under GSGQMKMFQEVSAADAFGPGTEGQ [Peptide E87] stands 1000 counts/minute; under QHESSPDISHFERSKQVSSVNEED [Peptide E83], 1250 counts/minute; under FERSKQVSSVNEEDFVRLKQQISD [Peptide E84], 1020 counts/minute.
Same read-out and setting: the figure for TVVHSGYRHQVPSVQVFSRSESTQ [Peptide E77] is 1250 counts/minute; for QISDHISQSCGSGQMKMFQEVSAA [Peptide E86] it is 1240 counts/minute; for ESTQPLLDSEERPEDLQLVDHVDG [Peptide E79] it is 1380 counts/minute.
Same read-out and setting: under SSCMSSSRPSISSSDENESSQNTS [Peptide E74] stands 1130 counts/minute; under NEEDFVRLKQQISDHISQSCGSGQ [Peptide E85], 1110 counts/minute; under VSAADAFGPGTEGQVERFETVGME [Peptide E88], 1090 counts/minute.
HVDGGDGILPRQQYFKQNCSQHES [Peptide E81]: the Counts/minute bound is 1100 counts/minute.
Same read-out and setting: under MPKSYLPQTVRQGGYMPQ [Peptide E91] stands 1230 counts/minute; under RQQYFKQNCSQHESSPDISHFERS [Peptide E82], 1090 counts/minute.
As for VGMEAATDEGMPKSYLPQTVRQGG [Peptide E90], the Counts/minute bound stood at 1380 counts/minute.
The same measure, in the same setting: under VPSVQVFSRSESTQPLLDSEERPE [Peptide E78] stands 1230 counts/minute.
Still for that read-out and setting: the figure for TEGQVERFETVGMEAATDEGMPKS [Peptide E89] is 1130 counts/minute; for QNTSSTVQYSTVVHSGYRHQVPSV [Peptide E76] it is 1200 counts/minute; for ISSSDENESSQNTSSTVQYSTVVH [Peptide E75] it is 1120 counts/minute.

For another test, the target named is T1, recombinant human IL-6. As to the kind of experiment: radioiodinated IL-6 on peptide array; experiment D11-D57. As for the experimental part: Synthetic peptide arrays were constructed in 96-well microtiter plates in accordance with the method set forth in WO 91/02714 (Saxinger), and used to test the binding of recombinant human IL-6 that had been labeled with radioactive iodine (radiolabeling by standard methods). After incubating the radiolabeled IL-6 ligand in a well with each synthetic peptide, a washing step was performed to remove unbound label, and the relative level of radioactivity remaining in each well of the plate was evaluated to determine the relative affinity of each peptide for IL-6 ligand.
Regarding IAIVLRFKKT [Peptide D38], the Counts/minute bound amounted to 6800 counts/minute.
As for LRFKKT [Peptide D42], the Counts/minute bound (counts/minute) turned out to be 1960.
As for GGSLAFGTL [Peptide D23], the Counts/minute bound worked out at 997 counts/minute.
Still for that read-out and setting: the figure for GGSLAFGTLLCIAIVLRF [Peptide D14] is 7690 counts/minute.
The same measure, in the same setting: the figure for GGSLAFGTLLCIAIVL [Peptide D16] is 2460 counts/minute; for AIVLRFKKT [Peptide D39] it is 4880 counts/minute; for CIAIVLRFKKT [Peptide D37] it is 8350 counts/minute.
On the same count and under the same terms, under FGTLLCIAIVLRFKKT [Peptide D32] stands 21800 counts/minute; under SLAFGTLLCIAIVLRFKKT [Peptide D29], 24700 counts/minute; under GGSLAFGTLLCIA [Peptide D19], 1150 counts/minute.
B1: the Counts/minute bound was found to be 21400 counts/minute.
Same read-out and setting: under B2 stands 22100 counts/minute; under B3, 34900 counts/minute; under B4, 20900 counts/minute.
Same read-out and setting: the figure for B5 is 28600 counts/minute.
Still for that read-out and setting: the figure for B6 is 23000 counts/minute.
B7: the Counts/minute bound was determined as 22300 counts/minute.
Same read-out and setting: under B8 stands 27700 counts/minute.
The same measure, in the same setting: the figure for B9 is 22100 counts/minute.
Still for that read-out and setting: the figure for B10 is 28500 counts/minute; for B11 it is 17900 counts/minute.
B12: the Counts/minute bound came to 22000 counts/minute.
As for B13, the Counts/minute bound was 29400 counts/minute.
On the same count and under the same terms, the figure for B14 is 30800 counts/minute; for GGSLAFGTLLCIAIVLRFKK [Peptide D12] it is 18100 counts/minute.
With GGSLAFGTLLCIAIVLR [Peptide D15], the Counts/minute bound turned out to be 3950 counts/minute.
The same measure, in the same setting: the figure for GTLLCIAIVLRFKKT [Peptide D33] is 15700 counts/minute.
Same read-out and setting: the figure for GGSLAFG (also called GGSLAFG) [Peptide D25] is 952 counts/minute; for GSLAFGTLLCIAIVLRFKKT [Peptide D28] it is 26400 counts/minute.
Still for that read-out and setting: under AFGTLLCIAIVLRFKKT [Peptide D31] stands 24000 counts/minute.
In the case of GGSLAFGTLLCIAIVLRFK [Peptide D13], the Counts/minute bound amounted to 16100 counts/minute.
The same measure, in the same setting: the figure for LLCIAIVLRFKKT [Peptide D35] is 15500 counts/minute; for GGSLAFGTLLCIAI [Peptide D18] it is 1180 counts/minute.
For LCIAIVLRFKKT [Peptide D36], the Counts/minute bound came to 12400 counts/minute.
Same read-out and setting: under GGSLAFGTLL [Peptide D22] stands 1000 counts/minute; under GGSLAF (also called GGSLAF) [Peptide D26], 1050 counts/minute.
Same read-out and setting: under GGSLAFGTLLCIAIV [Peptide D17] stands 1340 counts/minute.
The same measure, in the same setting: the figure for GGSLAFGT [Peptide D24] is 981 counts/minute.
In the case of TLLCIAIVLRFKKT [Peptide D34], the Counts/minute bound is 12400 counts/minute.
Still for that read-out and setting: the figure for GGSLAFGTLLCI [Peptide D20] is 1200 counts/minute; for GGSLAFGTLLC [Peptide D21] it is 1110 counts/minute.
For LAFGTLLCIAIVLRFKKT [Peptide D30], the Counts/minute bound is 22700 counts/minute.
